Data on six variants can be found in IntAct's records for PubMed 20708613.

The labels stand for the following.
B1: Voltage-gated delayed rectifier potassium channel KCNH1 (Homo sapiens), O95259-2 (parent)
chain: MTMAGGRRGLVAPQNTFLENIVRRSNDTNFVLGNAQIVDWPIVYSNDGFCKLSGYHRAEVMQKSSTCSFMYGELTDKDTIEKVRQTFENYEMNSFEILMYKKNRTPVWFFVKIAPIRNEQDKVVLFLCTFSDITAFKQPIEDDSCKGWGKFARLTRALTSSRGVLQQLAPSVQKGENVHKHSRLAEVLQLGSDILPQYKQEAPKTPPHIILHYCVFKTTWDWIILILTFYTAILVPYNVSFKTRQNNVAWLVVDSIVDVIFLVDIVLNFHTTFVGPAGEVISDPKLIRMNYLKTWFVIDLLSCLPYDVINAFENVDEGISSLFSSLKVVRLLRLGRVARKLDHYIEYGAAVLVLLVCVFGLAAHWMACIWYSIGDYEIFDEDTKTIRNNSWLYQLAMDIGTPYQFNGSGSGKWEGGPSKNSVYISSLYFTMTSLTSVGFGNIAPSTDIEKIFAVAIMMIGSLLYATIFGNVTTIFQQMYANTNRYHEMLNSVRDFLKLYQVPKGLSERVMDYIVSTWSMSRGIDTEKVLQICPKDMRADICVHLNRKVFKEHPAFRLASDGCLRALAMEFQTVHCAPGDLIYHAGESVDSLCFVVSGSLEVIQDDEVVAILGKGDVFGDVFWKEATLAQSCANVRALTYCDLHVIKRDALQKVLEFYTAFSHSFSRNLILTYNLRKRIVFRKISDVKREEEERMKRKNEAPLILPPDHPVRRLFQRFRQQKEARLAAERGGRDLDDLDVEKGNVLTEHASANHSLVKASVVTVRESPATPVSFQAASTSGVPDHAKLQAPGSECLGPKGGGGDCAKRKSWARFKDACGKSEDWNKVSKAESMETLPERTKASGEATLKKTDSCDSGITKSDLRLDNVGEARSPQDRSPILAEVKHSFYPIPEQTLQATVLEVRHELKEDIKALNAKMTNIEKQLSEILRILTSRRSSQSPQELFEISRPQSPESERDIFGAS
partner: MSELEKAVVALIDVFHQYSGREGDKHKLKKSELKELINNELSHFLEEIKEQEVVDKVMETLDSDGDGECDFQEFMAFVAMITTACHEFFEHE

In the first test the parent is B1. The settings on record: with S100B.
On to F717S, for which the “effect of a mutation on the interaction” value is “disrupting interaction”.

As to F714S, the “effect of a mutation on the interaction” value is recorded as “disrupting interaction”.

The variants in a further test derive from B1. The settings on record: with S100B. This is another data set of the same source.
With R675N, the “effect of a mutation on the interaction” value was “disrupting interaction”.

For the variant R677N, the “effect of a mutation on the interaction” value was “disrupting interaction”.

In the case of K682N, the “effect of a mutation on the interaction” value is given as “disrupting interaction”.

As for R681N, the “effect of a mutation on the interaction” value was “disrupting interaction”.
